Consider 9 molecules from paper PMC3336205, “The generation and evaluation of two panels of epitope-matched mouse IgG1, IgG2a, IgG2b and IgG3 antibodies specific for Plasmodium falciparum and Plasmodium yoelii merozoite surface protein 1–19 (MSP1_(19))” (Experimental Parasitology, 2012).

The labels stand for the following.
B1: mouse IgG1-B10 (PyMSP1_(19)-specific recombinant mouse IgG1) (antibody, V domains shown)
VH: QVQLQQSGPELVKPGASVKVSCKASGYAFTSYNMYWVKQSHGKSLEWIGYIDPYNGGTSYNQKLKGKATLTVDKSSSTAYIHLNSLTSEDSAVYYCTIHYYGYGGFAYWGQGTTVTSS
VL: DIELTQSTAIMSASPGEKVTMTCSASSSVRYMYWYQQKPGSSPRLLIYDTSKLASGVPVRFSGSGSGTSYSLAISRMEAEDAASYYCQQWSSYPPTLGGGTKLEIK
notes: VH of B10 (anti-PyMSP1_19), from pB10-VH/5; mouse IgG1 heavy-chain constant region, amplified from BALB/c genomic DNA; VL of B10, from pB10-VL/10; mouse kappa light chain constant region, amplified from BALB/c genomic DNA; Plasmids pVH-B10-mIgG1 and pVL-B10-mouse kappa; source: HEK-293T, stably transfected; culture supernatant
B2: mouse IgG3-B10 (PyMSP1_(19)-specific recombinant mouse IgG3) (antibody, V domains shown)
VH: QVQLQQSGPELVKPGASVKVSCKASGYAFTSYNMYWVKQSHGKSLEWIGYIDPYNGGTSYNQKLKGKATLTVDKSSSTAYIHLNSLTSEDSAVYYCTIHYYGYGGFAYWGQGTTVTSS
VL: DIELTQSTAIMSASPGEKVTMTCSASSSVRYMYWYQQKPGSSPRLLIYDTSKLASGVPVRFSGSGSGTSYSLAISRMEAEDAASYYCQQWSSYPPTLGGGTKLEIK
notes: VH of B10 (anti-PyMSP1_19), from pB10-VH/5; mouse IgG3 heavy-chain constant region, amplified from genomic DNA; VL of B10, from pB10-VL/10; mouse kappa light chain constant region, amplified from BALB/c genomic DNA; Plasmids pVH-B10-mIgG3 and pVL-B10-mouse kappa; source: CHO-K1, stably transfected; culture supernatant
B3: mouse IgG2b-B10 (PyMSP1_(19)-specific recombinant mouse IgG2b) (antibody, V domains shown)
VH: QVQLQQSGPELVKPGASVKVSCKASGYAFTSYNMYWVKQSHGKSLEWIGYIDPYNGGTSYNQKLKGKATLTVDKSSSTAYIHLNSLTSEDSAVYYCTIHYYGYGGFAYWGQGTTVTSS
VL: DIELTQSTAIMSASPGEKVTMTCSASSSVRYMYWYQQKPGSSPRLLIYDTSKLASGVPVRFSGSGSGTSYSLAISRMEAEDAASYYCQQWSSYPPTLGGGTKLEIK
notes: VH of B10 (anti-PyMSP1_19), from pB10-VH/5; mouse IgG2b heavy-chain constant region, amplified from genomic DNA; VL of B10, from pB10-VL/10; mouse kappa light chain constant region, amplified from BALB/c genomic DNA; Plasmids pVH-B10-mIgG2b and pVL-B10-mouse kappa; source: CHO-K1, stably transfected; culture supernatant
B4: mouse IgG2a-B10 (PyMSP1_(19)-specific recombinant mouse IgG2a) (antibody, V domains shown)
VH: QVQLQQSGPELVKPGASVKVSCKASGYAFTSYNMYWVKQSHGKSLEWIGYIDPYNGGTSYNQKLKGKATLTVDKSSSTAYIHLNSLTSEDSAVYYCTIHYYGYGGFAYWGQGTTVTSS
VL: DIELTQSTAIMSASPGEKVTMTCSASSSVRYMYWYQQKPGSSPRLLIYDTSKLASGVPVRFSGSGSGTSYSLAISRMEAEDAASYYCQQWSSYPPTLGGGTKLEIK
notes: VH of B10 (anti-PyMSP1_19), from pB10-VH/5; mouse IgG2a heavy-chain constant region, amplified from genomic DNA; VL of B10, from pB10-VL/10; mouse kappa light chain constant region, amplified from BALB/c genomic DNA; Plasmids pVH-B10-mIgG2a and pVL-B10-mouse kappa; source: CHO-K1, stably transfected; culture supernatant
B5: mouse IgG1-C1 (PfMSP1_(19)-specific recombinant mouse IgG1) (antibody, V domains shown)
VH: EVQLVQSGPEVKKPGASVKVSCKTSGYSFTSYDINWVRQAPGQGLEWMGRISPYNGKTDYTQTLRGRVTMSTDTSTTTVYLELRSLKSDDTAVYYCAREGVWFAELLSWGEGTLVTVSS
VL: DIVMTQTPGTLSLSPGERATLSCRASQSVSGNYLAWYQQKPGQAPRLLIHGSSDRAAGTPDRFSGRGSGTDFTLTISRLEPEDFAVYYCQQYCSSPFTFGPGTKVEIK
notes: VH of C1 (anti-PfMSP1_19), as the VH of m7; mouse IgG1 heavy-chain constant region, amplified from BALB/c genomic DNA; VL of C1, as the VL of m7; mouse kappa light chain constant region, amplified from BALB/c genomic DNA; Plasmids pVH-C1-mIgG1 and pVL-C1-mouse kappa; also called mIgG1-C1; murine IgG1-C1; source: HEK-293T, stably transfected; culture supernatant, and purified (protein G-Sepharose)
B6: human IgG1-C1 (JS1), parental human IgG1 antibody (antibody, V domains shown)
VH: EVQLVQSGPEVKKPGASVKVSCKTSGYSFTSYDINWVRQAPGQGLEWMGRISPYNGKTDYTQTLRGRVTMSTDTSTTTVYLELRSLKSDDTAVYYCAREGVWFAELLSWGEGTLVTVSS
VL: DIVMTQTPGTLSLSPGERATLSCRASQSVSGNYLAWYQQKPGQAPRLLIHGSSDRAAGTPDRFSGRGSGTDFTLTISRLEPEDFAVYYCQQYCSSPFTFGPGTKVEIK
notes: VH of C1 (anti-PfMSP1_19); human IgG1 heavy-chain constant region; VL of C1; light-chain constant region of pVKExpress C1; IgG1; also called hIgG1-C1; (h)IgG1-C1
B7: mouse IgG2b-C1 (PfMSP1_(19)-specific recombinant mouse IgG2b) (antibody, V domains shown)
VH: EVQLVQSGPEVKKPGASVKVSCKTSGYSFTSYDINWVRQAPGQGLEWMGRISPYNGKTDYTQTLRGRVTMSTDTSTTTVYLELRSLKSDDTAVYYCAREGVWFAELLSWGEGTLVTVSS
VL: DIVMTQTPGTLSLSPGERATLSCRASQSVSGNYLAWYQQKPGQAPRLLIHGSSDRAAGTPDRFSGRGSGTDFTLTISRLEPEDFAVYYCQQYCSSPFTFGPGTKVEIK
notes: VH of C1 (anti-PfMSP1_19), as the VH of m7; mouse IgG2b heavy-chain constant region, amplified from genomic DNA; VL of C1, as the VL of m7; mouse kappa light chain constant region, amplified from BALB/c genomic DNA; Plasmids pVH-C1-mIgG2b and pVL-C1-mouse kappa; also called mIgG2b-C1; source: CHO-K1, stably transfected; culture supernatant, and purified (protein G-Sepharose)
B8: mouse IgG2a-C1 (PfMSP1_(19)-specific recombinant mouse IgG2a) (antibody, V domains shown)
VH: EVQLVQSGPEVKKPGASVKVSCKTSGYSFTSYDINWVRQAPGQGLEWMGRISPYNGKTDYTQTLRGRVTMSTDTSTTTVYLELRSLKSDDTAVYYCAREGVWFAELLSWGEGTLVTVSS
VL: DIVMTQTPGTLSLSPGERATLSCRASQSVSGNYLAWYQQKPGQAPRLLIHGSSDRAAGTPDRFSGRGSGTDFTLTISRLEPEDFAVYYCQQYCSSPFTFGPGTKVEIK
notes: VH of C1 (anti-PfMSP1_19), as the VH of m7; mouse IgG2a heavy-chain constant region, amplified from genomic DNA; VL of C1, as the VL of m7; mouse kappa light chain constant region, amplified from BALB/c genomic DNA; Plasmids pVH-C1-mIgG2a and pVL-C1-mouse kappa; also called mIgG2a-C1; source: CHO-K1, stably transfected; culture supernatant, and purified (protein G-Sepharose)
B9: mouse IgG3-C1 (PfMSP1_(19)-specific recombinant mouse IgG3) (antibody, V domains shown)
VH: EVQLVQSGPEVKKPGASVKVSCKTSGYSFTSYDINWVRQAPGQGLEWMGRISPYNGKTDYTQTLRGRVTMSTDTSTTTVYLELRSLKSDDTAVYYCAREGVWFAELLSWGEGTLVTVSS
VL: DIVMTQTPGTLSLSPGERATLSCRASQSVSGNYLAWYQQKPGQAPRLLIHGSSDRAAGTPDRFSGRGSGTDFTLTISRLEPEDFAVYYCQQYCSSPFTFGPGTKVEIK
notes: VH of C1 (anti-PfMSP1_19), as the VH of m7; mouse IgG3 heavy-chain constant region, amplified from genomic DNA; VL of C1, as the VL of m7; mouse kappa light chain constant region, amplified from BALB/c genomic DNA; Plasmids pVH-C1-mIgG3 and pVL-C1-mouse kappa; also called mIgG3-C1; source: CHO-K1, stably transfected; culture supernatant, and purified (protein G-Sepharose)

For one test, the target named is T1, recombinant PyMSP1_(19)-GST (Plasmodium yoelii yoelii (strain not …, UniProt P13828)).
T1 construct: merozoite surface protein 1 (MSP1), Plasmodium yoelii, C-terminal 19-kDa region (MSP1_19), homologous to PfMSP1_19; also called P. yoelii MSP1_(19); source: recombinant, purified (Lewis, 1989)
T1 sequence (P13828 whole entry, looked up): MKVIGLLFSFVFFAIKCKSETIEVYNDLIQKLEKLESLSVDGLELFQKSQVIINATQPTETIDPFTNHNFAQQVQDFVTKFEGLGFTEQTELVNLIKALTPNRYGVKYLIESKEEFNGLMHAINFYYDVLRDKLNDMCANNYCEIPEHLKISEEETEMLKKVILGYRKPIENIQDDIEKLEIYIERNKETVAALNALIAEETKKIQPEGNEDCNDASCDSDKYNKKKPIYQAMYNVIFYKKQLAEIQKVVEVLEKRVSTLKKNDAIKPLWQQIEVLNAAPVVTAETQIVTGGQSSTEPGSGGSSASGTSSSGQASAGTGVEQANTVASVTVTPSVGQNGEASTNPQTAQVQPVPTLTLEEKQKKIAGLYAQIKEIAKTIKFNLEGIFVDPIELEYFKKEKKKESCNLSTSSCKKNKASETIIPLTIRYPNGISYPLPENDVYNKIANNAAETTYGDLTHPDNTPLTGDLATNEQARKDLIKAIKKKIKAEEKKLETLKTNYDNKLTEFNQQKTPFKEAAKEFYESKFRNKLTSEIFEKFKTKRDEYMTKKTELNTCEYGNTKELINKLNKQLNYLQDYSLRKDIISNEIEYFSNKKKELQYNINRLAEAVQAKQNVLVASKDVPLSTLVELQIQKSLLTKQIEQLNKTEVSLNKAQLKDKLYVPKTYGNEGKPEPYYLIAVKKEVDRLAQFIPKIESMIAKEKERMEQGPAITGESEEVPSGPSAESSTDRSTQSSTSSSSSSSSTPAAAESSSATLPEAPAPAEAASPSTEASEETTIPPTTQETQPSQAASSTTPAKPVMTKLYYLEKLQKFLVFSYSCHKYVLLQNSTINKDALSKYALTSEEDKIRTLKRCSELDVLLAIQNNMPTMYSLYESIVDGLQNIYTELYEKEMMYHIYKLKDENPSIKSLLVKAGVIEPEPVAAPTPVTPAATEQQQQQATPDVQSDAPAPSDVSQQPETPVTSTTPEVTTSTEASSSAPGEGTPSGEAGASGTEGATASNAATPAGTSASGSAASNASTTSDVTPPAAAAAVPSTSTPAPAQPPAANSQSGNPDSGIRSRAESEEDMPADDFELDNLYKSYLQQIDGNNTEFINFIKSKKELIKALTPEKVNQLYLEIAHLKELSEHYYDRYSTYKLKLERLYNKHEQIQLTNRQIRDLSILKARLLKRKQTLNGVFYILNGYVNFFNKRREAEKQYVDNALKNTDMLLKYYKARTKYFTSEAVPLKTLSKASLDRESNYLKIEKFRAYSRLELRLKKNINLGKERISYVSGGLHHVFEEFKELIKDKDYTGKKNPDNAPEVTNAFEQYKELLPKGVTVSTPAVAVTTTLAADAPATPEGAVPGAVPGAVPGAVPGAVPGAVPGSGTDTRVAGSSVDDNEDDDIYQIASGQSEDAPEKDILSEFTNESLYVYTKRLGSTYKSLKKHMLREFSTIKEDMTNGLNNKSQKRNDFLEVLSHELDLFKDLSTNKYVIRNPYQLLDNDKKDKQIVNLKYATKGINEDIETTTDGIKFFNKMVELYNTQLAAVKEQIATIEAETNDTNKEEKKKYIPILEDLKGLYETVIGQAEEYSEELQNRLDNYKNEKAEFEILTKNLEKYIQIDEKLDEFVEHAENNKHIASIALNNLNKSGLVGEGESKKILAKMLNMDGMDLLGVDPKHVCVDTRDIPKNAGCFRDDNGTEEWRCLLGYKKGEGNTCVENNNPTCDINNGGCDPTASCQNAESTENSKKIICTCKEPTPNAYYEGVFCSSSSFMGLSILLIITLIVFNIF
Kind of test: ELISA; five micrograms of recombinant purified antigen (PfMSP1_19-GST or PyMSP1_19-GST) coated; culture supernatant of secreting clones; detected with HRP anti-mouse IgG Fc-specific or anti-mouse kappa light chain secondary antibodies; read at 450 nm. As to conditions: one partner purified. For orientation: In an ELISA, binding on a coated surface is turned into a signal by an enzyme label.
As to B1, the binding result is reported as “binds”.
The same measure, in the same setting: under B2 stands “binds”; under B3, “binds”.
Still for that read-out and setting: with B4 the entry was “binds”.

The next test addresses T2, recombinant PfMSP1_(19)-GST (Plasmodium falciparum, strain not …, UniProt P04933).
T2 construct: merozoite surface protein 1 (MSP1), Plasmodium falciparum, C-terminal 19-kDa region (MSP1_19); also called C-terminal 19-kDa region of Plasmodium falciparum merozoite surface protein 1; source: recombinant, purified (Burghaus and Holder, 1994)
The experiment in a line: SPR; BIAcore X; PfMSP1_19-GST (50 μg/ml) amine-coupled to a CM5 chip; purified IgGs injected at 2, 1, 0.5, 0.25 and 0.125 μM, 50 μL at 10 μL/min; control Ag in flow cell 2. As to conditions: both partners purified. (In general: In SPR one partner is held on a chip, and binding of the other changes the refractive index at the surface.)
As usually defined, the Kd is the equilibrium constant for the complex coming apart. Consider B5, for which the Ka stood at 4.48e+07 M⁻¹ and the Kd was found to be 23 nM.
On the same counts, the results for B6 are 3.94e+07 M⁻¹ and 23 nM.
On the same counts, the results for B7 are 1.2e+07 M⁻¹ and 84.1 nM.
On the same counts, the results for B8 are 3.32e+07 M⁻¹ and 30.1 nM.
B9: the Ka was 2.33e+07 M⁻¹ and the equilibrium dissociation constant (Kd) is 31.1 nM.
